The record followed here is patent US20240131068A1 (KITE PHARMA, published 2024).

First the molecules themselves.
T1: native CD19 expressed on NALM6 tumor cells (UniProt P15391 20-556)
T1 construct: whole, on cells; also called CD19^+ NALM6; NALM6-wt
T1 sequence (looked up): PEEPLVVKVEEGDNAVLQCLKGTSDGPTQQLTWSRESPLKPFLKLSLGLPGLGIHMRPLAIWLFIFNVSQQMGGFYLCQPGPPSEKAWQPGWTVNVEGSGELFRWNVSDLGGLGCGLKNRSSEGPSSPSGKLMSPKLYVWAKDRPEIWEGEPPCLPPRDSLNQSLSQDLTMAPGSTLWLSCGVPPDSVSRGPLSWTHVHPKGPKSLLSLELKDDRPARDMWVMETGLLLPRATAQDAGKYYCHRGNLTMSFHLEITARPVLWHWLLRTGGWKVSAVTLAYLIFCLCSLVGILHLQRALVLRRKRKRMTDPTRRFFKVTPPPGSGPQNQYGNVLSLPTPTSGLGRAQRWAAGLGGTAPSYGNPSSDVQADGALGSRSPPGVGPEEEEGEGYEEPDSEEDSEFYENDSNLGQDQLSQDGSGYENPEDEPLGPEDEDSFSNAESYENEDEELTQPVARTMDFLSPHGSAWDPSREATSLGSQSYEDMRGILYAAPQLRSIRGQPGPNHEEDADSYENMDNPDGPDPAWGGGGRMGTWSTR

B1: CD19 16 scFv (P10) (scFv)
scFv: QSVLTQPPSVSGAPGQRVTISCTGSSSNIGAGYDVHWYQQLPGTAPKLLIYGNNNRPSGVPDRFSGSKSGTSASLAITGLQAEDEADYYCQSYDVSLGVWVFGGGTKLTVLGGGGSGGGGSGGGGSQLQLQESGPGLVKPSETLSLTCTVSGGSISSPSYYWGWIRQPPGKGLEWIGSIYYTGATYYNPSLKSRVTISVDTSKNQFSLKLSSVTAADTAVYYCARYGPAGVGFDYWGQGTLVTVSS
notes: scFv clone from the display library, screened as a library clone; also called 51; clone 51
B2: CD19 11 scFv (P7) (scFv)
scFv: DIQMTQSPSSLSASVGDRVTITCRASQSISSYLNWYQQKPGKAPKLLIYAASSLQSGVPSRFSGSGSGTDFTLTISSLQPEDFATYYCQQTGAVPYTFGQGTKVEIKGGGGSGGGGSGGGGSEVQLLESGGGLVQPGGSLRLSCAASGFTFRDYAMSWVRQAPGKGLEWVSAISESGIDTYYADSVKGRFTISRDNSKNTLYLQMNSLRAEDTAVYYCARVAGYDSDSSTYYDYMDVWGQGTLVTVSS
notes: scFv clone from the display library, screened as a library clone; also called 48; clone 48
B3: CD19 14 scFv (P8) (scFv)
scFv: DIQMTQSPSSLSASVGDRVTITCRASQSISNYLNWYQQKPGKAPKLLIYAASSLQSGVPSRFSGSGSGTDFTLTISSLQPEDFATYYCQQAYSAPITFGQGTKVEIKGGGGSGGGGSGGGGSEVQLLESGGGLVQPGGSLRLSCAASGFTFGDYAMSWVRQAPGKGLEWVSAISRGGHGTYYADSVKGRFTISRDNSKNTLYLQMNSLRAEDTAVYYCARLVGYGLDYWGQGTLVTVSS
notes: scFv clone from the display library, screened as a library clone; also called 49; clone 49
B4: CD19 7 scFv (P5) (scFv)
scFv: DIQMTQSPSSLSASVGDRVTITCRASQSISKYLNWYQQKPGKAPKLLIYDASSLQSGVPSRFSGSGSGTDFTLTISSLQPEDFATYYCQQSYTIPLTFGQGTKVEIKGGGGSGGGGSGGGGSQVQLVQSGAEVKKPGSSVKVSCKASGGTFSSYAFSWVRQAPGQGLEWMGGIVPLFGAVEYAQKFQGRVTITADESTSTAYMELSSLRSEDTAVYYCAREKGFYRYFDHWGQGTLVTVSS
notes: scFv clone from the display library, screened as a library clone; also called 46; clone 46
B5: CD19 E7 scFv (P4) (scFv)
scFv: DIQMTQSPSSLSASVGDRVTITCRASQDITRYLNWYQQKPGKAPKLLIYAASSLQSGVPSRFSGSGSGTDFTLTISSLQPEDFATYYCQQSYSYPPTFGQGTKVEIKGGGGSGGGGSGGGGSQVQLVESGGGVVQPGRSLRLSCAASGFTFRDYGMHWVRQAPGKGLEWVAVISYEGSNEYYADSVKGRFTISRDNSKNTLYLQMNSLRAEDTAVYYCARDRGFAGWYDYAFDPWGQGTLVTVSS
notes: scFv clone from the display library, screened as a library clone; also called 45; clone 45
B6: CD19 23 scFv (P12) (scFv)
scFv: DIQMTQSPSSLSASVGDRVTITCRASQSIYSYLNWYQQKRGKAPKLLIYDASSLQSGVPSRFSGSGSGTDFTLTISSLQPEDFATYYCQQSYTAPPTFGQGTKVEIKGGGGSGGGGSGGGGSEVQLLESGGGLVQPGGSLRLSCAASGFTFSNYAMSWVRQAPGKGLEWVSAISESGHGTYYADSVKGRFTISRDNSKNTLYLQMNSLRAEDTAVYYCARLDWAGFDVWGQGTLVTVSS
notes: scFv clone from the display library, screened as a library clone; also called 53; clone 53
B7: CD19 10 scFv (P6) (scFv)
scFv: DIQMTQSPSSLSASVGDRVTITCRASQTISRYLNWYQQKPGKAPKLLIYAASSLQSGVPSRFSGSGSGTDFTLTISSLQPEDFATYYCQQSYRPPLTFGQGTKVEIKGGGGSGGGGSGGGGSEVQLLESGGGLVQPGGSLRLSCAASGFTFSSYAMSWVRQAPGKGLEWVSTISAGGHGTYYADSVKGRFTISRDNSKNTLYLQMNSLRAEDTAVYYCARGAGYFDYWGQGTLVTVSS
notes: scFv clone from the display library, screened as a library clone; also called 47; clone 47
B8: CD19 15 scFv (P9) (scFv)
scFv: DIQMTQSPSSLSASVGDRVTITCRASQPIRPYLNWYQQKPGKAPKLLIYDASSLQSGVPSRFSGSGSGTDFTLTISSLQPEDFATYYCQQSYSAPYTFGQGTKVEIKGGGGSGGGGSGGGGSEVQLLESGGGLVQPGGSLRLSCAASGFTFSSYAMSWVRQAPGKGLEWVSVISGGGANTYYADSVKGRFTISRDNSKNTLYLQMNSLRAEDTAVYYCARDWRYFDHWGQGTLVTVSS
notes: scFv clone from the display library, screened as a library clone; also called 50; clone 50
B9: CD19 18 scFv (P11) (scFv)
scFv: QSVLTQPPSVSGAPGQRVTISCTGSSSNIGAGYDVHWYQQLPGTAPKLLIYGTKNRPSGVPDRFSGSKSGTSASLAITGLQAEDEADYYCQSYDVRLKGWVFGGGTKLTVLGGGGSGGGGSGGGGSQLQLQESGPGLVKPSETLSLTCTVSGGSITSSSYYWGWIRQPPGKGLEWIGSIYYTGTTYYNPSLKSRVTISVDTSKNQFSLKLSSVTAADTAVYYCARYVGLSGGFDYWGQGTLVTVSS
notes: scFv clone from the display library, screened as a library clone; also called 52; clone 52

SIGLEC 8, sequence (Q9NYZ4 17-499 limits assumed): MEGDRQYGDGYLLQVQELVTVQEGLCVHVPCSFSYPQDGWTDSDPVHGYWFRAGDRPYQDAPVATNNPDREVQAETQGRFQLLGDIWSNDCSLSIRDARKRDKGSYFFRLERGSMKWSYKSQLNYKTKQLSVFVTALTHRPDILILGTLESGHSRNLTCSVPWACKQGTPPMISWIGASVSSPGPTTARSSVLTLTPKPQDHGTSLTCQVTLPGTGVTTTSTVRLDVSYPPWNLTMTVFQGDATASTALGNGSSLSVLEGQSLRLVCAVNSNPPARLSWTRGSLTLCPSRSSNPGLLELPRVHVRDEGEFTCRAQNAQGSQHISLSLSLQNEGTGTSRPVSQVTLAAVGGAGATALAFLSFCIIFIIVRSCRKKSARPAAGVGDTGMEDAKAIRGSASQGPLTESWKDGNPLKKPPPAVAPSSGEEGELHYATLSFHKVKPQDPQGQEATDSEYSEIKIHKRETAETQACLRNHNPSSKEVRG
SIGLEC 7, sequence (Q9Y286 19-467 limits assumed): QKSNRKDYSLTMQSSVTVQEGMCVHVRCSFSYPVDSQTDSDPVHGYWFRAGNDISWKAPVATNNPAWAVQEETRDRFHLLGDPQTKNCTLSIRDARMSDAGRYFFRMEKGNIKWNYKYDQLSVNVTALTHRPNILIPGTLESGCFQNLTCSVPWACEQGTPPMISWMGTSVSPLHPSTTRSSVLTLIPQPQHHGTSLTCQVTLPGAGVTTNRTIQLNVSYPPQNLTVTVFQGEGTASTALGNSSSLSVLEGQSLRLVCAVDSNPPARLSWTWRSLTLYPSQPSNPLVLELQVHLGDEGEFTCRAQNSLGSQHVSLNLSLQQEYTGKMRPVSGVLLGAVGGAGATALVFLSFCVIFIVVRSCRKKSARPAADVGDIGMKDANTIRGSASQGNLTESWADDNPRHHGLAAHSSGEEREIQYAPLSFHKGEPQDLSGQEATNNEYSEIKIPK

The target of the first experiment is T1, native CD19 expressed on NALM6 tumor …. Briefly: screen of scFv clones on CD19^+ NALM6 cells, Nalm6-CD19KO cells as negative control.
From the text: To ensure that the up to (30) clones could recognize native CD19 expressed on tumor cells, the clones (scFv) were also screened against NALM6 tumor cell line positive (+) CD19 expression (NALM6 cell line+CD19). CD19 knockout Nalm6 cell line (NALM6 cell line⁻ CD1; or CD19KO Nalm6 cell line) were used as a negative control for the selection. CD19KO Nalm6 cell lines used for the screen were engineered CRISPR knocked-out (KO) Nalm6-CD19KO cells. Clones that bound CD19⁺ NALM6 tumor cells, but not CD19-NALM6 tumor cells (CD19K0) were selected (Step 4).
Regarding B1, the binding result is listed as “binds”. Turning to B2, the binding result is reported as “binds”. The same measure, in the same setting: with B3 the entry was “binds”; with B4, “binds”. Regarding B5, the binding result was “binds”. On the same count and under the same terms, with B6 the entry was “binds”. For B7, the binding result is given as “binds”.

In the case of B8, the binding result is given as “binds”. The same measure, in the same setting: with B9 the entry was “binds”.

Another experiment has as its target SIGLEC 7 (UniProt Q9Y286 19-467, limits assumed). Kind of experiment: counter-selection of scFv clones against baculovirus and SIGLEC 7, 8 and 9.
From the text: (§1) These up to 30 scFv clones were further screened based on their ability to bind baculovirus or SIGLEC. Clones that bound biotinylated baculovirus or SIGLEC 7, 8 and 9 were removed from consideration.
Turning to B5, the binding result is “no binding”.

A further experiment addresses SIGLEC 8 (UniProt Q9NYZ4 17-499, limits assumed). The description is as above.
From the text: as §1
Take B5: the binding result is reported as “no binding”.

In a further experiment the target is SIGLEC 9 (UniProt Q9Y336 18-463, limits assumed). The experiment is described as above.
SIGLEC 9, sequence (Q9Y336 18-463 limits assumed): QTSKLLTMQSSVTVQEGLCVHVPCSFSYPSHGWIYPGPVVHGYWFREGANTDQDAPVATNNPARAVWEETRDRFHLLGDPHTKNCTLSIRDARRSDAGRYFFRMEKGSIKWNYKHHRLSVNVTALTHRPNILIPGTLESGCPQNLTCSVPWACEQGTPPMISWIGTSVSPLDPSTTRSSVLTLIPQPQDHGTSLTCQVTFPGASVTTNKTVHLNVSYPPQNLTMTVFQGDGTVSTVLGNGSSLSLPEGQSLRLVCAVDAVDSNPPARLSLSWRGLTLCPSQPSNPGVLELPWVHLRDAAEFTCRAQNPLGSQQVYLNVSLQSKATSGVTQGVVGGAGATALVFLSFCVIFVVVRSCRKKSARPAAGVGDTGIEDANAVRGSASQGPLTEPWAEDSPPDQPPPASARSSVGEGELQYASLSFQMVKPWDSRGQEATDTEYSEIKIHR
From the text: as §1
Take B5: the binding result is on record as “no binding”.
